The values that follow come from paper PMC12140327, “Structural and Biochemical Characterization of a Widespread Enterobacterial Peroxidase Encapsulin” (Advanced Science, 2025).

Test [1] deals with T1, EncDyP (Escherichia coli, UniProt A0A5C9AJY8).
T1 construct: gene FPI65_30880; DyP-loaded T=1 encapsulin shell (60 Enc, about 3-5 DyP hexamers per shell); staggered co-expression in E. coli BL21(DE3), DyP in pCDFDuet-1, Enc in pBAD/HisA; no tag stated; DyP C-terminal residue K348; with Type 1 encapsulin shell protein
In words: ABTS oxidation at […] nm, plate reader. It counts as biochemical. Particulars: H2O2 as co-substrate; 50 mM phosphate citrate pH 4.6-7.6; room temperature.

In test [2] the target is T1, EncDyP. Kind of test: in-gel peroxidase activity stain (native PAGE, ferricyanide). The format is biochemical. The following applies: H2O2 0.003%; DAB in Tris-saline pH 7.5.
Test [3] deals with encapsulin shell protein (Enc) of the enterobacterial DyP encapsulin operon (E. coli). Kind of test: cryo-EM 2D class averages after shell subtraction; purified EncDyP from a two-gene operon under the T7 promoter.
Test [4] has the same target. Kind of test: cryo-EM 2D class averages after shell subtraction; purified EncDyP from staggered expression of DyP (PT7) and Enc (PBAD).
The target is the same in test [5]. Kind of test: cryo-EM structure; purified EncDyP from staggered co-expression, 2.8 mg/mL in 150 mM NaCl, 20 mM Tris pH 7.5; icosahedral symmetry imposed.
The target of test [6] is free His6-tagged Dye-decolorizing peroxidase (DyP). In words: cryo-EM structure; purified free DyP, 0.5 mg/mL in 150 mM NaCl, 20 mM Tris pH 7.5; D3 symmetry imposed.
Test [7] has the same target. In words: SEC; Superdex S-200, 150 mM NaCl, 20 mM Tris pH 7.5; heme followed by absorption at 404 nm. Background: SEC sorts molecules by how far they enter the pores of the column.

Where “and” joins values, the source holds several entries; their conditions need not be identical. Equal entries are not always repeated.

With `CCn1c(=NN=c2sc3cc(S(=O)(=O)O)ccc3n2CC)sc2cc(S(=O)(=O)O)ccc21` [ABTS], at EncDyP [1], the “ABTS oxidation at 420 nm, plate reader” value is “Peroxidase activity increased at a comparable rate for both free and encapsulated DyP”.
For the molecule `Nc1ccc(-c2ccc(N)c(N)c2)cc1N` [DAB], the “in-gel peroxidase activity stain (native PAGE, ferricyanide)” value at EncDyP [2] is “in‐gel peroxidase activity staining using ferricyanide which confirmed the encapsulation of catalytically active DyP”.
“Dye-decolorizing peroxidase (DyP) cargo, co-expressed with Enc and encapsulated (enzyme)” gave a DyP hexamers per shell (hexamer per shell) in test [3] of less than 1. The DyP hexamers per shell (DyP hexamers per shell) in test [4] was 3 and 5.
As for “encapsulin shell protein (Enc) of the enterobacterial DyP encapsulin operon (natural protein)”, in test [5], the stoichiometry N (commonly a count of units in the complex or per binding partner) turned out to be 60.
For “free His6-tagged Dye-decolorizing peroxidase (DyP) (enzyme)”, the stoichiometry N in test [6] and in test [7] was 6 in each case.
